The values that follow come from PMC7457537, “Influence of the amino-terminal sequence on the structure and function of HIV integrase” (Retrovirology, 2020).

Holding throughout (settings): both partners purified
Test [1] concerns the target T1, HIV-1 integrase with native N-terminal phenylalanine (IN 1F), full-length, wild type (HIV-1 (NL4-3)).
T1 chain: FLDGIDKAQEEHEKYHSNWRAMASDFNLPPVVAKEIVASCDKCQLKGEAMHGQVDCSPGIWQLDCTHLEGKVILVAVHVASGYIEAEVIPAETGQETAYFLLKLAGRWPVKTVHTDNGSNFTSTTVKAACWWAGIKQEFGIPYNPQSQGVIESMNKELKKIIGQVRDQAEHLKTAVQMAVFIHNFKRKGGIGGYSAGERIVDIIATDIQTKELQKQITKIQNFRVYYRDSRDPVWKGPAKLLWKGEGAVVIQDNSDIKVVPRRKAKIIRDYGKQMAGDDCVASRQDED
Nature of the test: AUC; sedimentation equilibrium, 4 °C, 20 mM HEPES-NaOH pH 7.5, 1 M NaCl, 7 mM CHAPS, 10 µM ZnOAc2, 10 µM β-mercaptoethanol; global fit at 16, 20, 24 krpm (SEDPHAT); dimer to monomers.

The target in test [2] is T1, HIV-1 integrase with native N-terminal …. Nature of the test: AUC; sedimentation equilibrium, 4 °C, same data and buffer as the monomer-dimer fit; attempted fit of a dimer-tetramer equilibrium: tetramer to dimers.
Test [3] shares this target. Kind of test: SEC-MALS; Superdex 200 10/300, 25 °C, 20 mM HEPES-NaOH pH 7.5, 500 mM-1 M NaCl, 7 mM CHAPS, 10 µM ZnOAc2, 10 µM β-mercaptoethanol; eluted concentrations ~8-10 µM (IN 1F, IN MF); self-association. In general terms: In gel filtration, larger molecules generally elute earlier.

Some results are limits rather than exact numbers.

B1: HIV-1 integrase with native N-terminal phenylalanine (IN 1F), full-length, wild type (enzyme)
chain: T1 chain
modifications: Zn2+ bound in the NTD (H12, H16, C40, C43); native N-terminal Phe1; monomer-dimer equilibrium. Limits: the paper gives F1 as the start and full length; the integrase chain follows RT (ends at 1147) …
Turning to B1, the values for the Kd in test [1] and in test [2] were 59.8 µM and > 1000 µM, respectively. Further, the stoichiometry N (as a rule, a count of units in the complex or per binding partner) in test [3] worked out at 2.
